From patent US20240409645A1 (DUALYX, published 2024)
Substitutions are numbered along the chain they refer to. Values belong to the binder of their own block, whether it stands above or below them.

Columns and labels:
[1] = target: T1, human IL-2Rβ (human, UniProt P14784 27-240, limits assumed); test: P.E. binding ELISA, human IL-2Rβ coated
T1 construct: Recombinant human IL-2Rβ protein, coated on ELISA plates or immobilized on a CM5 chip; also called hu IL-2R; interleukin 2 receptor β-chain
T1 sequence: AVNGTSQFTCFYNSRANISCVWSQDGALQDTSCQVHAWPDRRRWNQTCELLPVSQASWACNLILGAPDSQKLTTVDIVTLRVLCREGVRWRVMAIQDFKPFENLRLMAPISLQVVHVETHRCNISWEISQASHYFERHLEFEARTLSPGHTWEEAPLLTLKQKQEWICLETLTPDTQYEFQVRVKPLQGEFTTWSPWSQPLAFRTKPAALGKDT
Procedure: In a binding ELISA, human or mouse IL-2Rα, IL-2Rβ and IL-2Rγ proteins were coated directly on maxisorp microtiter plates overnight at 4° C. Free binding sites were blocked using 4% Marvel in PBS for 1 hour. Next, 1:5 dilution of P.E. in 1% Marvel/PBS were added to wells and incubated for 1 hour. […] Binding specificity was determined based on O.D. at 450 nm values compared to negative controls.

[2] = target: T1, human IL-2Rβ; test: SPR off-rate ranking of P.E., human IL-2Rβ immobilized
Procedure: SPR was performed to determine dissociation rates using Biacore 3000 instrument (GE Healthcare). Briefly, human and mouse IL-2R proteins were immobilized on carboxylmethyl dextran sensor chip (CM5) at approximately 2500 RUs using amine coupling in acetate buffer (GE Healthcare). The VHH-containing P.E. were loaded with a flow rate of 30 uL/min and the off-rates were measured over a 120s period.

OD450 nm (P.E. binding ELISA) [1]: 0.677 OD450 nm | koff [2]: 0.000619 s⁻¹
B1: FJ1427_P035MP06G02 (VHH)
VHH: EVQLVESGGGLVQAGGSLRLSCVVSGDVFVRYTMAWFRQAPRKEREFVAVVTDSGRTTEYVDSVKGRFTVSRDNAKNTVYLQMNNLKPEDTAVYYCAANTDYFQIRSVDNNAWGQGTQVTVSS
notes: Soluble VHH in periplasmic extract (P.E.); also called Clone nr

OD450 nm (P.E. binding ELISA) [1]: 0.213 OD450 nm | koff [2]: 0.000641 s⁻¹
B2: FJ1427_P035MP06G04 (VHH)
VHH: B1 VHH with E1Q, V5Q, R42G
notes: as for B1

OD450 nm (P.E. binding ELISA) [1]: 1 OD450 nm | koff [2]: 0.000261 s⁻¹
B3: FJ1427_P035MP06G10 (VHH)
VHH: B1 VHH with E1Q, V23A, V24A, R42G, V50S, V79A, V108L, D109N, N110L, A112T
notes: as for B1

OD450 nm (P.E. binding ELISA) [1]: 0.359 OD450 nm | koff [2]: 0.000267 s⁻¹
B4: FJ1427_P035MP06E08 (VHH)
VHH: B1 VHH with V23A, R42G, V50S, V79A, V108L, N110L, A112T
notes: as for B1

OD450 nm (P.E. binding ELISA) [1]: 0.224 OD450 nm | koff [2]: 0.000935 s⁻¹
B10: FJ1427_P035MP06F06 (VHH)
VHH: B1 VHH with E1Q, V23A, V24A, R42G, V50S, E59D, V108L, D109E, N110F, A112T
notes: as for B1

OD450 nm (P.E. binding ELISA) [1]: 1.02 OD450 nm | koff [2]: 0.000245 s⁻¹
B19: FJ1427_P035MP06H04 (VHH)
VHH: B1 VHH with V23A, R42G, V50S, V79A, V108L, N110L, A112T
notes: as for B1

OD450 nm (P.E. binding ELISA) [1]: 0.255 OD450 nm | koff [2]: 0.000286 s⁻¹
B20: FJ1427_P035MP06G08 (VHH)
VHH: QVQLQESGGGLVQAGGSLRLSCAASGDVFVRYTMAWFRQAPGKEREFVASVTDSGRTTEYVDSVKGRFTVSRDNAKNTAYLQMNNLKPEDTAVYYCAANTDYFQIRSLNLNTWGQGTQVTVSS
notes: Soluble VHH in periplasmic extract (P.E.); also called Clone nr; 543

More lines, now with the values behind:

B5: FJ1427_P035MP06E06 (VHH)
VHH: B20 VHH with Q1E, Q5V, S21F, A24V, N77D, N109D
notes: Soluble VHH in periplasmic extract (P.E.); also called Clone nr; 525
OD450 nm (P.E. binding ELISA) [1]: 1.45 OD450 nm | koff [2]: 0.000241 s⁻¹

B6: FJ1427_P035MP06D07 (VHH)
VHH: B20 VHH with Q5V, V93I, N109D
notes: Soluble VHH in periplasmic extract (P.E.); also called Clone nr; 532
OD450 nm (P.E. binding ELISA) [1]: 0.957 OD450 nm | koff [2]: 0.000346 s⁻¹

B7: FJ1427 P035MP06E12 (VHH)
VHH: B20 VHH with Q5V, E59D, A79V, N85A, R106K, N109D
notes: as for B1
OD450 nm (P.E. binding ELISA) [1]: 0.271 OD450 nm | koff [2]: 0.000496 s⁻¹

B8: FJ1427_P035MP06C05 (VHH)
VHH: B1 VHH with R42G, E44G
notes: as for B1
OD450 nm (P.E. binding ELISA) [1]: 0.58 OD450 nm | koff [2]: 0.000751 s⁻¹

B9: FJ1427 P035MP06F04 (VHH)
VHH: B20 VHH with Q5V, A24V, A79V, N85S, N109R, L110A
notes: Soluble VHH in periplasmic extract (P.E.); also called Clone nr; 510
OD450 nm (P.E. binding ELISA) [1]: 1.33 OD450 nm | koff [2]: 0.000487 s⁻¹

B11: FJ1427_P035MP06B05 (VHH)
VHH: B20 VHH with Q5V, E59D, A79V, N109E, L110F
notes: as for B1
OD450 nm (P.E. binding ELISA) [1]: 0.617 OD450 nm | koff [2]: 0.000871 s⁻¹

B12: FJ1427_P035MP06D04 (VHH)
VHH: B1 VHH with E1Q, V5Q, R42G
notes: as for B1
OD450 nm (P.E. binding ELISA) [1]: 0.189 OD450 nm | koff [2]: 0.000621 s⁻¹

B13: FJ1427_P035MP06D06 (VHH)
VHH: B20 VHH with Q1E, Q5V, A24V, N109D
notes: as for B1
OD450 nm (P.E. binding ELISA) [1]: 0.289 OD450 nm | koff [2]: 0.00029 s⁻¹

B14: FJ1427_P035MP06A05 (VHH)
VHH: B20 VHH with Q5V, A24V, E59D, D62H, A79V, R106K, N109D, L110A
notes: as for B1
OD450 nm (P.E. binding ELISA) [1]: 0.149 OD450 nm | koff [2]: 0.00118 s⁻¹

B15: FJ1427_P035MP06A09 (VHH)
VHH: B20 VHH with Q1E, Q5V, E59D, A79V, R106K, N109D, L110R
notes: as for B1
OD450 nm (P.E. binding ELISA) [1]: 0.192 OD450 nm | koff [2]: 0.000947 s⁻¹

B16: FJ1427_P035MP06A03 (VHH)
VHH: B20 VHH with Q1E, Q5V, E59D, A79V, N109E, L110F
notes: as for B1
OD450 nm (P.E. binding ELISA) [1]: 0.148 OD450 nm | koff [2]: 0.000882 s⁻¹

B17: FJ1427_P035MP06C06 (VHH)
VHH: B1 VHH with E1Q, V5Q, R42G
notes: Soluble VHH in periplasmic extract (P.E.); also called Clone nr; 523
OD450 nm (P.E. binding ELISA) [1]: 0.255 OD450 nm | koff [2]: 0.000698 s⁻¹

B18: FJ1427 P035MP06E03 (VHH)
VHH: B20 VHH with Q1E, Q5V, E59D, A79V, R106K, N109D, L110R, S123P
notes: as for B1
OD450 nm (P.E. binding ELISA) [1]: 0.57 OD450 nm | koff [2]: 0.000745 s⁻¹

B21: FJ1427_P035MP06A06 (VHH)
VHH: QLQLVESGGGLVQAGGSLRLACALSGDVFVRYTMAWFRQAPGKEREFVASVTDSGRTTDYVASVQGRFTVSRDNNKNTVYLQMNSLKPEDTAVYYCAANTDYFQIRSLDRNTWGQGTQVTVSS
notes: as for B1
OD450 nm (P.E. binding ELISA) [1]: 0.3 OD450 nm | koff [2]: 0.000631 s⁻¹
